Drawing on paper PMC6506529, “Structural Insights into Catalytic Versatility of the Flavin-dependent Hydroxylase (HpaB) from Escherichia coli” (Scientific Reports, 2019), this text covers Km, kcat and kcat/Km for six molecules.

For orientation: Km means the concentration of substrate that gives half-maximal velocity. Usually kcat stands for the number of substrate molecules converted per active site and unit of time at saturation. For orientation: kcat/Km means the turnover number divided by the Michaelis constant.

Holding throughout (conditions): apparent, 10 μM FAD, 1 mM NADH, 500 nM HpaC, 20 mM KPi pH 7.0, 30 °C
For data set [1], the system named is O=C(O)/C=C/c1ccc(O)cc1. Kind of data set: HPLC of product and substrate; Michaelis-Menten fit. The data set is classed as biochemical, Escherichia coli. From the text:
(§1) HPLC of product and substrate; Michaelis-Menten fit on EcHpaB

Data set [2] relates to O=C(O)/C=C/c1ccc(O)cc1. Description: purified protein. The data set is classed as biochemical, Escherichia coli.
From the text: as §1

For the next data set, the system named is O=c1ccc2ccc(O)cc2o1. Kind of data set: purified protein.
In data set [3] the test system is O=C(O)/C=C/c1ccc(O)cc1. Description: purified protein. Type of data set: biochemical, Escherichia coli. This is another data set of the same source.
Substrate in data set [4]: O=C1C[C@@H](c2ccc(O)cc2)Oc2cc(O)cc(O)c21
Kind of data set: purified protein.

Substrate in data set [5]: O=c1ccc2ccc(O)cc2o1
Kind of data set: purified protein. This is another data set of the same source.

Substrate in data set [6]: Oc1ccc(/C=C/c2cc(O)cc(O)c2)cc1
Kind of data set: purified protein.

Substrate in data set [7]: O=C(O)/C=C/c1ccc(O)cc1
Kind of data set: HPLC of product and substrate; Michaelis-Menten fit. Type of data set: biochemical, Escherichia coli. The source holds these as a separate data set.

In the case of “EcHpaB (Escherichia coli; A211D/E216M/F208A/G207M/G209M/G215A/M214G/N217V/Q212G/S210V/V213S)”, in the data set with O=C(O)/C=C/c1ccc(O)cc1 [1], the Michaelis constant (Km) stood at 235.3 ± 52.5 µM, the kcat is 0.375 ± 0.0217 s⁻¹ and the specificity constant (kcat/Km) was found to be 1560 M⁻¹ s⁻¹.

For the molecule “EcHpaB (Escherichia coli; A211D/E216M/F208A/G207M/G209M/G215A/N217V/S210V)”, in the data set on O=C(O)/C=C/c1ccc(O)cc1 [2], the Michaelis-Menten constant (Km) is 210.8 ± 85.3 µM, the catalytic constant (kcat) worked out at 0.512 ± 0.0617 s⁻¹ and the kcat/Km was determined as 2400 M⁻¹ s⁻¹.

Turning to “EcHpaB (Escherichia coli; A211D/E216S/F208S/M214S/N217D/Q212L/V213G)”, in the data set on O=c1ccc2ccc(O)cc2o1, the Michaelis-Menten constant (Km) was found to be 176.9 ± 35.9 µM, the turnover number (kcat) stood at 0.348 s⁻¹ and the kcat/Km was 2000 M⁻¹ s⁻¹. Besides, in the data set on O=C(O)/C=C/c1ccc(O)cc1 [3], the Michaelis-Menten constant (Km) is 132.1 ± 29.1 µM, the turnover number (kcat) stood at 0.365 ± 0.0167 s⁻¹ and the catalytic efficiency (kcat/Km) came out at 2800 M⁻¹ s⁻¹.

As to “EcHpaB (Escherichia coli; A211D/F208A/G207M/G209M/S210V)”, in the data set with O=C(O)/C=C/c1ccc(O)cc1 [3], the Michaelis-Menten constant (Km) was determined as 387.9 ± 32.7 µM, the kcat is 0.183 ± 0.00667 s⁻¹ and the kcat/Km came out at 470 M⁻¹ s⁻¹.

For the molecule “EcHpaB (Escherichia coli; E216M/G215A/N217V)”, in the data set with O=C(O)/C=C/c1ccc(O)cc1 [1], the Km turned out to be 235.6 ± 40.2 µM, the kcat is 0.497 ± 0.0217 s⁻¹ and the kcat/Km was 2100 M⁻¹ s⁻¹.

B1: EcHpaB (Escherichia coli) (protein)
chain: MKPEDFRASTQRPFTGEEYLKSLQDGREIYIYGERVKDVTTHPAFRNAAASVAQLYDALHKPEMQDSLCWNTDTGSGGYTHKFFRVAKSADDLRHERDAIAEWSRLSYGWMGRTPDYKAAFGCALGGTPGFYGQFEQNARNWYTRIQETGLYFNHAIVNPPIDRHLPTDKVKDVYIKLEKETDAGIIVSGAKVVATNSALTHYNMIGFGSAQVMGENPDFALMFVAPMDADGVKLISRASYEMVAGATGSPYDYPLSSRFDENDAILVMDNVLIPWENVLLYRDFDRCRRWTMEGGFARMYPLQACVRLAVKLDFITALLKKSLECTGTLEFRGVQADLGEVVAWRNTFWALSDSMCSEATPWVNGAYLPDHAALQTYRVLAPMAYAKIKNIIERNVTSGLIYLPSSARDLNNPQIDQYLAKYVRGSNGMDHVQRIKILKLMWDAIGSEFGGRHELYEINYSGSQDEIRLQCLRQAQSSGNMDKMMAMVDRCLSEYDQNGWTVPHLHNNDDINMLDKLLK
notes: (α2)2 tetramer; expressed in E. coli BW25113 (F') from pZE12-luc, purified; assayed with separate purified HpaC reductase
On to B1, for which the Km in the data set “purified protein [4]” was found to be 349.8 ± 77.6 µM; in the data set “purified protein [5]” it was 217.0 ± 60.6 µM; in the data set “purified protein [6]”, 174.3 ± 17.9 µM; in data set [7] it was 137.6 ± 21.0 µM. Also, the catalytic constant (kcat) came out at 0.15 s⁻¹ in “purified protein [4]”, 0.418 s⁻¹ in “purified protein [5]”, 0.437 s⁻¹ in “purified protein [6]” and 0.387 ± 0.0117 s⁻¹ in data set [7]. For the same molecule, the specificity constant (kcat/Km) in “purified protein [4]” was 400 M⁻¹ s⁻¹; in “purified protein [5]”, 1900 M⁻¹ s⁻¹; in “purified protein [6]” it was 2500 M⁻¹ s⁻¹; in data set [7], 2800 M⁻¹ s⁻¹.
